The source of these data is patent US20060147378A1, “Azulene dimer-quenched, near-infrared fluorescent probes” (priority 2002, published 2006).

Where no end group is shown, it is not given here. Alexa‑680 maleimide = near-infrared fluorochrome (Ex 679 nm, Em 702 nm) reacted with the cysteine; NIRQ750 = not defined here

Data set [1] concerns T1, NIRQ750-GDEVDGSGC-Alexa-680 caspase-3 substrate probe.
T1 sequence: GDEVDGSGC

Data set [2] deals with T2, caspase-3 (Homo sapiens, UniProt P42574).
T2 sequence (P42574 29-175 limits assumed): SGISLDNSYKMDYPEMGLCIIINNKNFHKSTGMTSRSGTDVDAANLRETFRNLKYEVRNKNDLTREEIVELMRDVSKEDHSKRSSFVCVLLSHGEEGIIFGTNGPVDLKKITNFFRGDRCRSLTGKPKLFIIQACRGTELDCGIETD
T2 sequence (P42574 176-277 limits assumed): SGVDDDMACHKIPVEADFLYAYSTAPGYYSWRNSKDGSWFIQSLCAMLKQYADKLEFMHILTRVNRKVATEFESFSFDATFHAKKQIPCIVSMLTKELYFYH
As to the kind of experiment: Activation of NIRF probes by caspase-3 with or without inhibitor. In kind it is biochemical. How it is done:
The HPLC purified NIRF probes were tested against caspase-3 with or without an inhibitor of the enzyme in pH7.2 buffer (20 mM PIPES, 100 mM NaCl, 10 mM DTT, 1 mM EDTA, 0.1% CHAPS, 10% sucrose). Within 180 minutes, the fluorescence signal of NIRQ750-probe (probe 6, FIG. 7A) had increased about 4-fold while no activation was observed when the caspase-3 specific inhibitor was present (FIG. 7B). […] As expected, the fluorescence signal of both negative controls, (probe 7, FIG. 7A) with enzyme and probe 6 without enzyme, were remained unchanged.

Regarding caspase-3, in data set [1], the “fluorescence signal increase (probe activation by enzymatic cleavage) within 180 minutes” value is “had increased about 4-fold”.
For the substance “probe 6: NIRQ750 anchored to N-terminus of caspase-3 cleavable peptide GDEVDGSGC, Alexa-680 maleimide on the cysteine residue (NIRQ750-GDEVDGSGC(Alexa‑680 maleimide); not fully specified (C-terminus); reading uncertain)”, the “activation (fluorescence signal) with caspase-3 specific inhibitor present” value in data set [2] (caspase-3 plus caspase-3 specific inhibitor, pH7.2 buffer) was “no activation”. Further, in data set [2] (negative control, no enzyme, pH7.2 buffer), the “fluorescence signal without enzyme” value was “unchanged”. For the same substance, the “increase of fluorescence signal” value in data set [2] (with caspase-3, within 180 minutes, pH7.2 buffer (PIPES, NaCl, DTT, EDTA, CHAPS, sucrose)) is “about 4 fold”.
